Article PMC11892807

Tests used:
[1] = target: CA(A14C/E45C/W184A/M185A) (HIV-1); assay: mass photometry; no ligand added; 2 uL of sample into 18 uL buffer, 60 s at 331 Hz; unliganded WT CA and pre-formed cross-linked pentamers and hexamers as controls
[2] = target: CA(A14C/E45C/W184A/M185A) (HIV-1); assay: cross-linking; as the DMSO reaction, but 2 uM LEN pre-incubated with monomeric CA (1 uM) before concentration to 125 uM and sequential dialysis out of beta-mercaptoethanol; products on SDS-PAGE
[3] = target: CA(A14C/E45C/W184A/M185A) (HIV-1); assay: cross-linking; disulfide cross-linking of monomeric CA with DMSO, by sequential dialysis out of beta-mercaptoethanol at 4 C (final 20 mM Tris-HCl pH 8, 40 mM NaCl, no reducing agent); products on SDS-PAGE; legend: 1 uM CA, methods: diluted to 1 uM, then concentrated to 125 uM
[4] = target: CA(N21C/A22C/W184A/M185A) (HIV-1); assay: mass photometry; no ligand added; 2 uL of sample into 18 uL buffer, 60 s at 331 Hz; unliganded WT CA and pre-formed cross-linked pentamers and hexamers as controls
[5] = target: CA(N21C/A22C/W184A/M185A) (HIV-1); assay: cross-linking; disulfide cross-linking of monomeric CA with DMSO, by sequential dialysis out of beta-mercaptoethanol at 4 C (final 20 mM Tris-HCl pH 8, 40 mM NaCl, no reducing agent); products on SDS-PAGE; legend: 1 uM CA, methods: diluted to 1 uM, then concentrated to 125 uM

In the case of “CA(A14C/E45C/W184A/M185A) (natural protein)”, the stoichiometry N [1] is reported as 6, the stoichiometry N [2] is reported as 6 and the stoichiometry N [3] is reported as 6.
Work on “CA(N21C/A22C/W184A/M185A) (natural protein)” yielded a stoichiometry N [4] of 5 and a stoichiometry N [5] of 5.
